Kd data for 1 molecule are collected here from doi:10.1101/503680 (bioRxiv, 2018).

The target of this assay is His6-KIF3A-motor (mouse, UniProt P28741 1-350). The assay is described as follows: SPR.

As usually defined, the Kd is a measure of binding affinity in units of concentration.

His6-KIF3A-motor, sequence (P28741 1-350): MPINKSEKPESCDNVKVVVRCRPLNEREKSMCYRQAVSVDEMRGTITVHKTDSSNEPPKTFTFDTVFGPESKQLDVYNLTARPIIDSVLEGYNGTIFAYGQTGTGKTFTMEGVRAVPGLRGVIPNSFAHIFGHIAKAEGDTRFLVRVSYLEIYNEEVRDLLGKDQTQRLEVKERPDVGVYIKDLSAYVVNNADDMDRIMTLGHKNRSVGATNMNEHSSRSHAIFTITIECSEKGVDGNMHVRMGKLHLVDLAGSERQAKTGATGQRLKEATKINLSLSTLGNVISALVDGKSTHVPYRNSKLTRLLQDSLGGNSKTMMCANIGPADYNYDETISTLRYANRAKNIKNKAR

B1: GST-KIF3A-S689A-Tail (domain or fragment, mouse, UniProt P28741 598-701, looked up)
chain: IPQDYQEMIENYVHWNEDIGEWQLKCVAYTGNNMRKQTPVPDKKERDPFEVDLSHVYLAYTEESLRQSLMKLERPRTSKGKARPKMGRRKRAAKPETVIDSLLQ
Consider B1, for which the affinity, expressed as Kd, was 48.4 nM.
